Reference: article doi:10.1101/2020.02.27.968578

What was measured:
[1] = molecular target: CFP (UniProt P42212); assay: cited; details: PBS, 5 mM MgCl2, pH 7.4, room temperature, 5 min; 50 nM GFP, excitation 480 nm; cited from earlier work
[2] = molecular target: EGFP (UniProt P42212); assay: cited; details: PBS, 5 mM MgCl2, pH 7.4, room temperature, 5 min; 50 nM GFP, excitation 480 nm; cited from earlier work
[3] = molecular target: YFP (UniProt P42212); assay: cited; details: PBS, 5 mM MgCl2, pH 7.4, room temperature, 5 min; 50 nM GFP, excitation 480 nm; cited from earlier work
[4] = molecular target: EGFP (UniProt P42212); assay: GFP fluorescence quenching titration; details: PBS, 5 mM MgCl2, pH 7.4, room temperature, 5 min; 50 nM GFP, excitation 480 nm

In the case of “GGGAGCUUCUGGACUGCGAUGGGAGCACGAAACGUCGUGGCGCAAUUGGGUGGGGAAAGUCCUUAAAAGAGGGCCACCACAGAAGC [AP3 (GFP aptamer)]”, the Kd [1] is given as 10 nM, the Kd [2] is given as 4 nM and the Kd [3] is given as 10 nM. The Kd [4] was 4 nM.
